Columns and labels:
[1] = biological target: T1, FcRL2, overexpressed on 3T3 cells (UniProt Q96LA5 20-508, limits assumed); experiment: phage clone on 3T3-FcRL2 cells
T1 construct: whole, on cells
T1 sequence (looked up): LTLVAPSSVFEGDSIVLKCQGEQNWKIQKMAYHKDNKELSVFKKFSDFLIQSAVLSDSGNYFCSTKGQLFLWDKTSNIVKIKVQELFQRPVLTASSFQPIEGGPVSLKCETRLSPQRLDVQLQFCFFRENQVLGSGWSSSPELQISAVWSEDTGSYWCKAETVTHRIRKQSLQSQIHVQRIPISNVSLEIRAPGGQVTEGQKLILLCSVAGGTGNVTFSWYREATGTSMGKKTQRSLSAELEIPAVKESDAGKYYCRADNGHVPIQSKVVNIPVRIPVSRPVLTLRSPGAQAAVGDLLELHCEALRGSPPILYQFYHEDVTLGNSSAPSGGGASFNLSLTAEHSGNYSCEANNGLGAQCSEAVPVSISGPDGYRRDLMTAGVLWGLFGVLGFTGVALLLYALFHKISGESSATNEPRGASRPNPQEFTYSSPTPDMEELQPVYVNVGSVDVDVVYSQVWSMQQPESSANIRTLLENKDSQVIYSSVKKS

[2] = biological target: T2, FcRL6, overexpressed on 3T3 cells (UniProt Q6DN72 20-434, limits assumed); experiment: phage clone on 3T3-FcRL6 cells
T2 construct: whole, on cells
T2 sequence (looked up): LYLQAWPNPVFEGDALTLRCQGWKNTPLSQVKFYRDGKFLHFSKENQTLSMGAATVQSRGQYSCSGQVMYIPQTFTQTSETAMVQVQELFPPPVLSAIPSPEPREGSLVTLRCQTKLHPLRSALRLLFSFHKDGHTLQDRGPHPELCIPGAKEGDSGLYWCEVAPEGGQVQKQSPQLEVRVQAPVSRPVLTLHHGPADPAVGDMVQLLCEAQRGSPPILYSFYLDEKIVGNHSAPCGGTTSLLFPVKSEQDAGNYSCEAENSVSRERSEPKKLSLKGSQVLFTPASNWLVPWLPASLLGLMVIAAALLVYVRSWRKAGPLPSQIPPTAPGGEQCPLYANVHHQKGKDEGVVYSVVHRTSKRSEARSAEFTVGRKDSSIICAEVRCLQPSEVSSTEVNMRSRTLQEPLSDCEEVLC

[3] = biological target: T3, FcRL3, overexpressed on 3T3 cells (UniProt Q96P31 18-734, limits assumed); experiment: phage clone on 3T3-FcRL3 cells
T3 construct: whole, on cells
T3 sequence (looked up): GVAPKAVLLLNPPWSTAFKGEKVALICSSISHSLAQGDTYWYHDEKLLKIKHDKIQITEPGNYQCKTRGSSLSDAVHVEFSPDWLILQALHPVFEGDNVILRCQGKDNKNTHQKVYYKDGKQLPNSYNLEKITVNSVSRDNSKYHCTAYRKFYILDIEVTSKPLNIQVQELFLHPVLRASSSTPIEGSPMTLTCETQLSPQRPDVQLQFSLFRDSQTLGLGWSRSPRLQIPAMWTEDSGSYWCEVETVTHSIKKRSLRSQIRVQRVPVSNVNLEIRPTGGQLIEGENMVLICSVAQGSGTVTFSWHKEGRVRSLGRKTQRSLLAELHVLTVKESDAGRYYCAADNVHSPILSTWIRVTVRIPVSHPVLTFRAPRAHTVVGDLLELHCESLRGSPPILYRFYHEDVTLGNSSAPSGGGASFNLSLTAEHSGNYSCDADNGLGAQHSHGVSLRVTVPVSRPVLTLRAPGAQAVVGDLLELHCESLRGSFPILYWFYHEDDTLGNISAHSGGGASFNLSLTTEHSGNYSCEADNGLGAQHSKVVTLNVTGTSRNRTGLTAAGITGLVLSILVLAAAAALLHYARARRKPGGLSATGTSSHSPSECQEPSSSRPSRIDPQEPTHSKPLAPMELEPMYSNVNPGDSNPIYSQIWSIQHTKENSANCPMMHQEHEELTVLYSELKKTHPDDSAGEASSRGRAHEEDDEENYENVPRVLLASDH

[4] = biological target: T4, FcRL4, overexpressed on 3T3 cells (UniProt Q96PJ5 20-515, limits assumed); experiment: phage clone on 3T3-FcRL4 cells
T4 construct: whole, on cells
T4 sequence (looked up): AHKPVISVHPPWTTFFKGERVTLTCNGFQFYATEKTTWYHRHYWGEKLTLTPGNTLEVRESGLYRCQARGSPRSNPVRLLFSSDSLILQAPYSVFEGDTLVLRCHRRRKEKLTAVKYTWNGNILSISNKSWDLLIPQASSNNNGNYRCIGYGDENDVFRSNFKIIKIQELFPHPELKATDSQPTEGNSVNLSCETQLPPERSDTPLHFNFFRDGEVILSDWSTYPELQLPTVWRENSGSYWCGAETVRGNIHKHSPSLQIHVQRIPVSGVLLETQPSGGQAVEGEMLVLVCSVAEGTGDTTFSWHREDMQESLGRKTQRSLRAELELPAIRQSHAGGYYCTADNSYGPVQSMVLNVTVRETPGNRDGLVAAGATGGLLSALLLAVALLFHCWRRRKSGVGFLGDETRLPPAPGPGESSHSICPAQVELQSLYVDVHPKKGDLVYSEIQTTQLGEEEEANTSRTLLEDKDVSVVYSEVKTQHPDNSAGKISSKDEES

SLAMF9 protein = SLAMF9 protein (UniProt Q96A28 19-236, limits assumed); experiment: phage clone on SLAMF9 protein
SLAMF9 protein, sequence (Q96A28 19-236 limits assumed): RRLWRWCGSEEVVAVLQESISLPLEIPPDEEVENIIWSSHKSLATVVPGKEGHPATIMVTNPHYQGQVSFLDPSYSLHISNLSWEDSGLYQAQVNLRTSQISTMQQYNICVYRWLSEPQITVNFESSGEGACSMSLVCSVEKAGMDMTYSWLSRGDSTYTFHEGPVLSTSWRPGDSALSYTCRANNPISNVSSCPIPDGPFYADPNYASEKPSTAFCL

Measured: binding result

B1: ET200-013 (scFv)
scFv: QSVVTQPPSVSGAPGQRVTISCTGSTSNIGAGYDVHWYQQLPGTAPKLLIYTNNFRPSGVPDRFSASKSGTSASLAITGLQAEDEADYYCGTWDSSLSAVVFGGGTKLTVLGSRGGGGSGGGGSGGGGSLEMAEVQLVESGTEVKKPGASVKVSCKASGYMFTSYGLNWVRQAPGQGLEWMGWISANNGKTNYAKKFQDRVTMTRDTSTSTGYMELRSLRSDDTAVYYCARHIGGSYFDRWGQGTLVTVSSTSGQAGQHHHHHHGAYPYDVPDYAS
notes: screened as phage clone; entry is VL-linker-VH-His tag-HA tag
no binding: all assays above

B2: ET200-016 (scFv)
scFv: SSELTQDPAVSVALGQTVKITCQGDSLTDYHATWYQQKPGQAPVAVIYATNNRPTGIPDRFSGSSSGNTASLTITGAQAEDEADYYCNSRDSGTDEVLFGGGTKLTVLGSRGGGGSGGGGSGGGGSLEMAEVQLVETGGGLVKPGGSLRLSCAASGFTFSSYSMNWVRQAPGKGLEWVSSISSSSSYIYYADSVKGRFTISRDNAKNSLYLQMNSLRAEDTAVYYCARGQGYDYWGQGTLVTVSSTSGQAGQHHHHHHGAYPYDVPDYAS
notes: as for B1
no binding: all assays above

B3: ET200-018 (scFv)
scFv: QAVLTQPPSTSGTPGQRVTISCSGSSSNIGRNGVNWYQQLPGAAPKVLIYNDNQRPSGVPDRVSGSQSGSSGTLAIDGLRSEDEADYYCAAWDDSLHGVVFGGGTKLTVLGSRGGGGSGGGGSGGGGSLEMAQVQLVQSGAEVKKPGASVKVSCKVSGYTLNELSMHWVRQAPGKGLEWMGGFDPEDGETIYAQKFQGRVTMTEDTSTDTAYMELSSLRSEDTAVYYCARGGYGDSWGQGTLVTVSSTSGQAGQHHHHHHGAYPYDVPDYAS
notes: as for B1
no binding: all assays above

B4: ET200-014 (scFv)
scFv: SYVLTQPPSVSVAPGKTARITCGGNNIGSKSVHWYQQKPGQAPVLVIYYDSDRPSGIPERFSGSNSGNTATLTISRVEAGDEADYYCQVWDSSSDHYVFGTGTKVTVLGSRGGGGSGGGGSGGGGSLEMAEVQLVETGGGLVQPGGSLRLSCAASGFTFSSYAMSWVRQAPGKGLEWVSAISGSDGSTYYADSVKGRFTISRDNSKNTLYLQMNSLRDEDTAVYYCARSHEANLVGDWWGQGTLVTVSSTSGQAGQHHHHHHGAYPYDVPDYAS
notes: as for B1
no binding: all assays above

B5: ET200-015 (scFv)
scFv: QSVVTQPPSVSVAPGKTARITCGGNNIGSKSVHWYQQKPGQAPVLVIYYDSDRPSGIPERFSGSNSGNTATLTISRVEAGDEADYYCQVWDSSSDVVFGGGTKLTVLGSRGGGGSGGGGSGGGGSLEMAEVQLVQSGAEVKKPGASVKVSCKASGYTFTSYGISWVRQAPGQGLEWMGWISAYNGNTNYAQKLQGRVTMTTDTSTSTAYMELRSLRSDDTAVYYCARWGGFGAVDHWGQGTLVTVSSTSGQAGQHHHHHHGAYPYDVPDYAS
notes: as for B1
no binding: all assays above

B6: ET200-011 (scFv)
scFv: QSVVTQPPSVSAAPGQRVTISCSGSSSNISIYDVSWYQQLPGTAPKLLIYGNNKRPSGIADRFSGSTSGTSATLGITGLQTGDEADYYCGTWDDSLSGGVFGGGTKLTVLGSRGGGGSGGGGSGGGGSLEMAQMQLVQSGAEVKKPGSSVKVSCEASGGTLSSYAINWVRQAPGQGLEWMGGIIPMFGTAHYAQKFQGRVTITADESTKTAYMELSSLRSEDTAVYYCARGVHYASFDHWGQGTLVTVSSTSGQAGQHHHHHHGAYPYDVPDYAS
notes: as for B1
no binding: all assays above

B7: ET200-012 (scFv)
scFv: QSVLTQPPSVSAAAGQKVTISCSGSDSNIGNNYVSWYQHLPGTAPKLLIYDVKNRPSGIPDRFSGSKSGSSATLGIAGLQPGDEADYYCGTWDSRLDAYVFGTGTKVTVLGSRGGGGSGGGGSGGGGSLEMAQMQLVQSGAEVKKPGASVKVSCKTSGFPFNIFGITWVRQAPGQGLEWMGWISGYNGNTDYPQKFQGRVTMSTDTSTSTAYMELRNLKSDDTAVYYCARGAYGGMDTWGQGTLVTVSSTSGQAGQHHHHHHGAYPYDVPDYAS
notes: as for B1
no binding: all assays above

B8: ET200-017 (scFv)
scFv: SYVLTQPPSVSVAPGKTARITCGGNNIGSKSVHWYQQKPGQAPVLVVYDDSDRPSGIPERFSGSNSGNTATLSISRVEAGDEADYYCQVWDSSSDHTVFGTGTKVTVLGSRGGGGSGGGGSGGGGSLEMAQVQLQQWGAGLLKPSETLSLTCAVYGGSFSGYYWSWIRQPPGKGLEWIGEINHSGSTNYNPSLKSRVTISVDTSKNQFSLKLSSVTAADTAVYYCARYYPGMDMWGQGTLVTVSSTSGQAGQHHHHHHGAYPYDVPDYAS
notes: as for B1
no binding: all assays above
